According to patent US20170166877A1:

What was measured:
Assay in all cases: cell-based or functional assay
[1] = target: FKBP12v36-ΔCaspase-9 encoded by the retroviral vectors pSFG-iC9.T2A-ΔCD19 (pBP0220) and its FRBL derivatives pBP0755, pBP0756, pBP0757 (human)
[2] = target: Four tandem FRBL domains encoded by pBP0725 (pSH1-FRBl.FRBl′.LS.FRBl″.FRBl′″)
[3] = target: FKBP.FRB.ΔC9 encoded by pBP1311 (pSFG.FKBP.FRB.ΔC9.T2A-ΔCD19)
[4] = target: FRB.FKBP.ΔC9 encoded by pBP1310 (pSFG.FRB.FKBP.ΔC9.T2A-ΔCD19)
[5] = target: Four tandem FKBP12 (Fpk) domains encoded by pBP0722 (pSH1-Fpk-Fpk′.LS.Fpk″.Fpk′″.LS.HA) (Homo sapiens (Human)) (UniProt P62942)
[6] = target: First generation CD19-CAR fused to two tandem FRBl domains, co-expressed with inducible Caspase-9
[7] = target: First generation Her2-CAR fused to two tandem FRBl domains
[8] = target: MyD88-CD40 fused to wild-type FKBP12 and FRBL, encoded by pBP1440
[9] = target: Non-myristoylated inducible MyD88/CD40 with two FKBP12v36 domains, encoded by pBP0606 (pSFG-k-ΔMyr.iMC.2A-ΔCD19) (human)
Non-myristoylated inducible MyD88/CD40 with two FKBP12v36 domains, encoded by pBP0606 (pSFG-k-ΔMyr.iMC.2A-ΔCD19) (human), sequence (chain, as listed by the source mutant limits assumed): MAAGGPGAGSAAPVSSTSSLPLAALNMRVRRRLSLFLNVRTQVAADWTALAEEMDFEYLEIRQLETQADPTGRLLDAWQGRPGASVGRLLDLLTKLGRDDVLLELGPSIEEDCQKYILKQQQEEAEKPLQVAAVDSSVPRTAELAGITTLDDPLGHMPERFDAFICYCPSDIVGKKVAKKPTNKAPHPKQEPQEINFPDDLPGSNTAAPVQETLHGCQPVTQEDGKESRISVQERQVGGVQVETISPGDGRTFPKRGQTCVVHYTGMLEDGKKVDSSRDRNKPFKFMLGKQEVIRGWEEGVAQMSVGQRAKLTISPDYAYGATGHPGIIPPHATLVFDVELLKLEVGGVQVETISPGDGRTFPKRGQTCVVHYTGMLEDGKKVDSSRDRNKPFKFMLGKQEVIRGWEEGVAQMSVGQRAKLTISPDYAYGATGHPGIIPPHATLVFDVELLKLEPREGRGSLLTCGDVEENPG

FKBP.FRB.ΔC9 encoded by pBP1311 (pSFG.FKBP.FRB.ΔC9.T2A-ΔCD19), sequence (chain): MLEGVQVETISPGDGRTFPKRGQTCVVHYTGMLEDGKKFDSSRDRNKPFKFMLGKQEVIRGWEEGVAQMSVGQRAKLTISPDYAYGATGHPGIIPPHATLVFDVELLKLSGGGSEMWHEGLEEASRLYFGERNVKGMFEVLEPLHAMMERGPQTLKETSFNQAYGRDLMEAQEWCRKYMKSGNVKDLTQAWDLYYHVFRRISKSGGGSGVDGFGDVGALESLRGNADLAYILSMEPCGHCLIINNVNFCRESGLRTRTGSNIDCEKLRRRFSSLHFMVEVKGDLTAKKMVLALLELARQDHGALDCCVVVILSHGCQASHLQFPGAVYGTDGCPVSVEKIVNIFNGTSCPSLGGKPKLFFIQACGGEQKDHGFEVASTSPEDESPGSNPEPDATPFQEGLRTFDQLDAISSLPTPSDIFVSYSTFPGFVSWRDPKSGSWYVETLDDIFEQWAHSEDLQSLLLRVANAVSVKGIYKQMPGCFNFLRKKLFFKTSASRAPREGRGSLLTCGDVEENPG
Four tandem FRBL domains encoded by pBP0725 (pSH1-FRBl.FRBl′.LS.FRBl″.FRBl′″), sequence (chain, as listed by the source limits assumed): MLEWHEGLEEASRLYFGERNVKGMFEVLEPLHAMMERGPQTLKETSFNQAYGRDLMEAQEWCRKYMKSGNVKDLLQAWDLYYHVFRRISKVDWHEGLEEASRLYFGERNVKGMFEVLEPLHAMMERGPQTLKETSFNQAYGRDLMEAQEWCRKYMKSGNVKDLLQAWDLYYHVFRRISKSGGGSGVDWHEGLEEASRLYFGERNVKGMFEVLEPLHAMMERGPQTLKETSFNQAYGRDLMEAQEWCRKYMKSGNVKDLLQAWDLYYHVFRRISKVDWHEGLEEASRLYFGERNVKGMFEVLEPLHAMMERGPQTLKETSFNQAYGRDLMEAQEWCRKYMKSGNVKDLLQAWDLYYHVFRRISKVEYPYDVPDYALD
FRB.FKBP.ΔC9 encoded by pBP1310 (pSFG.FRB.FKBP.ΔC9.T2A-ΔCD19), sequence (chain): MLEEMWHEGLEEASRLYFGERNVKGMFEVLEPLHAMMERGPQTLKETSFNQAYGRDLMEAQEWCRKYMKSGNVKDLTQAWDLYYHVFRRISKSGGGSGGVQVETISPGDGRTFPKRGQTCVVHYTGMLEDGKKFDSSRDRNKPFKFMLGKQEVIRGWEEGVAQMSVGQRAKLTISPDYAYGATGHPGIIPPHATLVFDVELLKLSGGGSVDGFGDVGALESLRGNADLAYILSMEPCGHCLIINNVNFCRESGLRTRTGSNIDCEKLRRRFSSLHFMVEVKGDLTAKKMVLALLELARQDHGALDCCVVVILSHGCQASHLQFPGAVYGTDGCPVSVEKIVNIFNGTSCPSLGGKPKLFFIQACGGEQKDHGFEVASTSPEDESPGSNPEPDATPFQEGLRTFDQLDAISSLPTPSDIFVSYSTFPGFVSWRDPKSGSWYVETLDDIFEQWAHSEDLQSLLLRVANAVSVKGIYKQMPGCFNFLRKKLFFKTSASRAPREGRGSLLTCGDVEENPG
Two FRBL domains fused to ΔCaspase-9, encoded by pBP0668 (pSFG-FRBlx2.Caspase9.2A-Q.8stm.CD3zeta), sequence (chain): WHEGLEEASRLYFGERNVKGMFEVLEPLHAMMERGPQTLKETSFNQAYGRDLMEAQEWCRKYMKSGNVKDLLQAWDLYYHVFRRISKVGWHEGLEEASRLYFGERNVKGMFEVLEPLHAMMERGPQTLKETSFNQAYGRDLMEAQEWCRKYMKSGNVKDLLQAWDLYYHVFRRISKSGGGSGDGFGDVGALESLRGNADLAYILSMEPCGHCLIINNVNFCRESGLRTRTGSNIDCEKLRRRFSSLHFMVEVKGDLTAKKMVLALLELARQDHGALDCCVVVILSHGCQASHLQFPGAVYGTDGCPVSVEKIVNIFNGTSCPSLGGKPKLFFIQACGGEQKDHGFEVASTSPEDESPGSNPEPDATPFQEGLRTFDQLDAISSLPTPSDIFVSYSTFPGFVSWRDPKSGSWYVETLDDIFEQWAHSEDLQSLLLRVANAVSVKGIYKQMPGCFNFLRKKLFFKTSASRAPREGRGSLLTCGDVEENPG
MyD88-CD40 fused to wild-type FKBP12 and FRBL, encoded by pBP1440, sequence (chain): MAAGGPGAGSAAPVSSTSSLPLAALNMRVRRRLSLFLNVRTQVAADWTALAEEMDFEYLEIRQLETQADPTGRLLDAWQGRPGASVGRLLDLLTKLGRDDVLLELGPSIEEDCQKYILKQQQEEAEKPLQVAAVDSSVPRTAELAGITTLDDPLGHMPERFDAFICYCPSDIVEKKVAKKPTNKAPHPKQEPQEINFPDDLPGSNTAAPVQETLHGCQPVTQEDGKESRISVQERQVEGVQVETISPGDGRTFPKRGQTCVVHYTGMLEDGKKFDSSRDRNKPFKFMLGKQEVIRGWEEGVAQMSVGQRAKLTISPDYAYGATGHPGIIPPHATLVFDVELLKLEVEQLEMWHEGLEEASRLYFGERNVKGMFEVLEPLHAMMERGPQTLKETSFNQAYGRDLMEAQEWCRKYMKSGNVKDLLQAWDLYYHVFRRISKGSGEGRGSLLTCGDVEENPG

## FKBP12v36-ΔCaspase-9 encoded by the retroviral vectors pSFG-iC9.T2A-ΔCD19 (pBP0220) and its FRBL derivatives pBP0755, pBP0756, pBP0757
[1]
  rapamycin concentration without effect in the SRα-SEAP assay, transfected 293 cells: > 1000 nM

## FKBP12v36-ΔCaspase-9 fusion encoded by pBP0044 (pSH1-iCaspase9wt)
[2]
  IC50 of rapamycin or C7-isopropoxy-rapamycin for loss of constitutive SRα-SEAP reporter activity (cell death), transfected 293 cells: 3 nM

## FKBP.FRB.ΔC9 encoded by pBP1311 (pSFG.FKBP.FRB.ΔC9.T2A-ΔCD19)
[3]
  lowest rapamycin concentration with high activity (caspase 3/7 IncuCyte assay and SRα-SEAP assay), transfected 293 cells: 100 pM

## FRB.FKBP.ΔC9 encoded by pBP1310 (pSFG.FRB.FKBP.ΔC9.T2A-ΔCD19)
[4]
  lowest rapamycin concentration with high activity (caspase 3/7 IncuCyte assay and SRα-SEAP assay), transfected 293 cells: 100 pM

## FRBL-ΔCaspase-9 fusion encoded by pBP0463 (pSH1-FRBL.dCaspase9.T2A)
[5]
  IC50 of rapamycin or C7-isopropoxy-rapamycin for loss of constitutive SRα-SEAP reporter activity (cell death), transfected 293 cells: 3 nM

## Inducible Caspase-9 (FKBP-tagged Caspase-9) as used in Example 17
[6]
  decrease of constitutive SRα-SEAP activity with rapamycin, transfected 293 cells (% decrease of SEAP activity): 50
[7]
  decrease of constitutive SRα-SEAP activity with rapamycin, transfected 293 cells (% decrease of SEAP activity): 50

## MyD88-CD40 fused to wild-type FKBP12 and FRBL, encoded by pBP1440
[8]
  EC50 of rapamycin or isobutyloxyrapamycin in the NF-κB SeAP reporter assay, transfected 293T cells: < 1 nM

## Two FRBL domains fused to ΔCaspase-9, encoded by pBP0668 (pSFG-FRBlx2.Caspase9.2A-Q.8stm.CD3zeta)
[9]
  rapamycin level giving elimination of CD34+CD19+ doubly transduced primary T cells (flow cytometry, 24 h): 2 nM
